Consider 2 proteins from ChEMBL document CHEMBL4342470, “Detection of Active Granzyme A in NK92 Cells with Fluorescent Activity-Based Probe” (J Med Chem, 2020).

What all share (details): Homo sapiens
Substrate in data set [1]: CC(=O)N1Cc2ccccc2C[C@H]1C(=O)NCC(=O)N1C2CCCCC2C[C@H]1C(=O)N[C@@H](CCCNC(=N)N)C(=O)Nc1ccc2c(CC(N)=O)cc(=O)oc2c1
Briefly: Substrate activity at Granzyme K (unknown origin) expressed in Pichia pastoris incubated for 30 mins by fluorescence based assay.

Substrate in data set [2]: CC[C@H](C)[C@H](NC(C)=O)C(=O)NCC(=O)N1CCC[C@H]1C(=O)N[C@@H](CCCNC(=N)N)C(=O)Nc1ccc2c(CC(N)=O)cc(=O)oc2c1
As to the kind of experiment: (§1) Substrate activity at Granzyme A (unknown origin) expressed in Pichia pastoris incubated for 30 mins by fluorescence based assay.

Substrate in data set [3]: CC(=O)N1Cc2ccccc2C[C@H]1C(=O)NCC(=O)N1C2CCCCC2C[C@H]1C(=O)N[C@@H](CCCNC(=N)N)C(=O)Nc1ccc2c(CC(N)=O)cc(=O)oc2c1
The data set is described as §1.

B1: Granzyme K (Homo sapiens), P49863 (protein)
chain: MTKFSSFSLFFLIVGAYMTHVCFNMEIIGGKEVSPHSRPFMASIQYGGHHVCGGVLIDPQWVLTAAHCQYRFTKGQSPTVVLGAHSLSKNEASKQTLEIKKFIPFSRVTSDPQSNDIMLVKLQTAAKLNKHVKMLHIRSKTSLRSGTKCKVTGWGATDPDSLRPSDTLREVTVTVLSRKLCNSQSYYNGDPFITKDMVCAGDAKGQKDSCKGDSGGPLICKGVFHAIVSGGHECGVATKPGIYTLLTKKYQTWIKSNLVPPHTN
One may read the Km as the concentration of substrate that gives half-maximal velocity. As usually defined, the kcat is the number of substrate molecules converted per active site and unit of time at saturation. Usually kcat/Km stands for the second-order rate constant that governs catalysis at low substrate concentration. As for B1, in data set [1], the Km result was “Not Active”, the kcat result was “Not Active” and the kcat/Km result is recorded as “Not Active”.

B2: Granzyme A (Homo sapiens), P12544 (protein)
chain: MRNSYRFLASSLSVVVSLLLIPEDVCEKIIGGNEVTPHSRPYMVLLSLDRKTICAGALIAKDWVLTAAHCNLNKRSQVILGAHSITREEPTKQIMLVKKEFPYPCYDPATREGDLKLLQLMEKAKINKYVTILHLPKKGDDVKPGTMCQVAGWGRTHNSASWSDTLREVNITIIDRKVCNDRNHYNFNPVIGMNMVCAGSLRGGRDSCNGDSGSPLLCEGVFRGVTSFGLENKCGDPRGPGVYILLSKKHLNWIIMTIKGAV
For B2, in data set [2], the Km amounted to 450 µM, the kcat is 0.035 s⁻¹ and the kcat/Km was 78 s⁻¹ M⁻¹. Moreover, in data set [3], the Km is 87.4 µM, the kcat turned out to be 0.27 s⁻¹ and the kcat/Km came to 3100 s⁻¹ M⁻¹.
